Test [1] has as its target T1, human CD39 (full length, on cells) (human, UniProt P49961 1-510).
T1 sequence: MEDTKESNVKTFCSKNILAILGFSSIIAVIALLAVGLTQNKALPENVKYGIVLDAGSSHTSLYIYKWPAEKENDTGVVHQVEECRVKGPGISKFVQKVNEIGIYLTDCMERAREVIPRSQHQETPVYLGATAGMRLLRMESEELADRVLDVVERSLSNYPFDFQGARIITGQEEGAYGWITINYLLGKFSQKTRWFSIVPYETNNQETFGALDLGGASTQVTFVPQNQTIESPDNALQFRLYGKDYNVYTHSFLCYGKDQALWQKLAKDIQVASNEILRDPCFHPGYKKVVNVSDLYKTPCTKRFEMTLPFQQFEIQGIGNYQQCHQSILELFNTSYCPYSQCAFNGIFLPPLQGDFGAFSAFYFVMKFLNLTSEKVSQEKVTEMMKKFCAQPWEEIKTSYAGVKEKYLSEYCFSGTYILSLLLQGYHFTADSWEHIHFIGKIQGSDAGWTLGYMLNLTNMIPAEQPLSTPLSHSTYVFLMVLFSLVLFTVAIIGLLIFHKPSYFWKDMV
Put plainly: cell-based or functional assay.

Test [2] addresses T1, human CD39 (full length, on cells). Put plainly: FACS, SK-MEL-28 cells. As for the experimental part: (§1) FACS were used to determine binding of the antibodies to cell lines expressing CD39 naturally (SK-MEL-28) or recombinantly (CHOK1-hCD39, CHOK1-cynoCD39, and CHOK1-mCD39), or with cells lacking CD39 expression (CHOK1-blank) as a negative control.
(§2) Similarly, human CD39 expressing cells SK-MEL-5, SK-MEL-28 or MOLP-8, were incubated with a gradient concentration of anti-CD39 antibodies for 30 minutes at 4° C. Cells were washed 3 times using FACS buffer and next incubated with fluorescence labelled secondary antibody (goat-anti-mouse IgG or goat anti-human IgG) for 30 minutes at 4° C. Cells were washed 3 times and then re-suspended in FACS buffer and analyzed by flow cytometry analysis on BD Celesta. Data plotted and analyzed using GraphPad Prism 8.02.
(In flow cytometry, cells or beads pass a laser one at a time.)

Test [3] has as its target T2, cynomolgus CD39 (full length, on CHOK1-cynoCD39 cells) (cynomolgus monkey, UniProt A0A7N9DGH8 1-510).
T2 construct: whole, on cells; also called cCD39
T2 sequence: T1 sequence with V47I, F94Y, V221I, I230T, I329V, K368N, A391S, F489V, T490I
Put plainly: FACS, CHOK1-cynoCD39 cells.
Excerpt: as §1
(§3) CHOK1-hCD39, CHOK1-cCD39, CHOK1-mCD39 and CHOK1-blank cells were maintained in culture medium according to ATCC procedure. Cells were collected and re-suspended in blocking buffer at a density of 3×10⁶ cells/ml. Cells were transferred to 96 well FACS plates at 100 μl/well (3×10⁵ cells/well), the plates were centrifuged and washed twice with FACS buffer (PBS, 1% FBS, 0.05% Tween-20). 4-folds serial dilution of anti-CD39 antibodies were prepared in FACS buffer starting from 30 μg/ml. Reference antibody 9-8B and mouse/human control IgG were used as positive and negative controls, respectively. Cells were re-suspended in 100 μL/well diluted antibodies, and the plates were incubated at 4° C. for 60 min. […] The plates were washed with FACS buffer, and cells were re-suspended in 100 μL/well of PBS. Cells were then analyzed with FACSVerse™ and mean fluorescence intensity were determined. Full binding curves were generated on the CD39 expressing cells by testing a range of antibody concentrations. Apparent affinity was determined for each antibody using Prism software.

Test [4] concerns the target T3, mouse CD39 (full length, on CHOK1-mCD39 cells) (mouse, UniProt P55772 1-510).
T3 construct: whole, on cells
T3 sequence (looked up): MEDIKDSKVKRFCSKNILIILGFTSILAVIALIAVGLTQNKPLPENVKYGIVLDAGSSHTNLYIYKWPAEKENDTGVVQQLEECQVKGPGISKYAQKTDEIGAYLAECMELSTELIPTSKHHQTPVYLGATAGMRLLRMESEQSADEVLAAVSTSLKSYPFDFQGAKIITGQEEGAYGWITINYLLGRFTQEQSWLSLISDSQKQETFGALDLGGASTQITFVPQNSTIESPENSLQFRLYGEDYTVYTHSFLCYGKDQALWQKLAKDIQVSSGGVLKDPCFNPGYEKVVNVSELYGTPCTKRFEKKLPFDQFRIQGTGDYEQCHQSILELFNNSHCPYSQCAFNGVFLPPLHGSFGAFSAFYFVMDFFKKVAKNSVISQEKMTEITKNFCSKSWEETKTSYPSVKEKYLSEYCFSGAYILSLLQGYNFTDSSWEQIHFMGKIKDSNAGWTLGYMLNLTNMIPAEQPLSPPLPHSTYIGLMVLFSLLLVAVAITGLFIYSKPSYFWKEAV
Put plainly: FACS, CHOK1-mCD39 cells.
Excerpt: as §1, §3

Test [5] has as its target T1, human CD39 (full length, on cells). Put plainly: FACS, CHOK1-hCD39 cells.
Excerpt: as §1, §3

Test [6] shares this target. Put plainly: FACS, MOLP-8 cells. As for the experimental part: as §2
(§4) The binding affinity of the humanized antibodies for c14 was determined by FACS using MOLP-8 cells expressing human CD39, using similar methods as described in Example 3.2.

Test [7] has the same target. Put plainly: FACS on MOLP-8 cells, MFI. The protocol:
as §2, §4

Test [8] addresses T4, human CD39 (protein; form not stated) (human, UniProt P49961 38-478, limits assumed).
T4 construct: also called ENTPD1; ENTPDase 1
T4 sequence: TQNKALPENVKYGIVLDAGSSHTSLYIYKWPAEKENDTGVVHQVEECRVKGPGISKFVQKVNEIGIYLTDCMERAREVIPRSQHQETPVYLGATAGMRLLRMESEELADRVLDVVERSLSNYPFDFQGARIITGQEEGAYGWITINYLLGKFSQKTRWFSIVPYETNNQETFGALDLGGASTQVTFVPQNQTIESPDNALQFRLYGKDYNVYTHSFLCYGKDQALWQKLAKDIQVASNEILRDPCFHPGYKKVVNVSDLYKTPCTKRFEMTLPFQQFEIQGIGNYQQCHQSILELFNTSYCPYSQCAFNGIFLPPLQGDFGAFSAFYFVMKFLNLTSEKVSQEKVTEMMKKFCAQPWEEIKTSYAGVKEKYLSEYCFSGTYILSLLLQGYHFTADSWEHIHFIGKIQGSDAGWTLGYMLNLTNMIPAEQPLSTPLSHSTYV
Put plainly: Octet (BLI), antibody on sensor, CD39 in solution. The protocol: Briefly, the antibodies were coupled on sensors and then the sensors were dipped into CD39 gradients (start at 200 nM, with 2-fold dilution and totally 8 doses). Their binding responses were measured in real-time and results were fit globally.
For orientation: Biolayer interferometry detects binding as a change in optical thickness at a sensor tip.

Numbering of substitutions follows the chain as printed.

B1: mAb35 (antibody, V domains shown)
VH: EVRLQQSGAELVKPGASVKLSCTASGFNIEDTYVHWMKQRPEQGLEWIGRIDPAIDNSKYDPKFQGKATITAVSSSNTAYLQLSSLTSEDTAVYYCALYDGYNVYAMDYWGQGTSVTVSS
VL: DIVMTQAAFSNPVTLGTSASISCRSSKNLLHSNGITYLYWYLQRPGQSPQLLIYRASTLASGVPNRFSGSESGTDFTLRISRVEAEDVGVYYCAQLLELPHTFGGGTKLEIK
notes: mouse hybridoma antibody
As a reminder, the EC50 is the concentration that produces a half-maximal response. High values mean lower potency in that assay, low ones higher potency in that assay. Consider B1, for which the “SK-MEL-28 cell based ATPase inhibition % at 10 nM” value in test [1] is 56%. Besides, the EC50 in test [2] worked out at 1.8 nM; in test [3] it was 5.3 nM; in test [5], 5.2 nM. The binding result in test [4] is recorded as “no binding (tested: 30 µg/ml highest concentration)”.

B2: mAb13 (antibody, V domains shown)
VH: QIQLVQSGPELKKPGETVKISCKASGYTFTNYGMNWVKQAPGKGLRWMGLINTYTGEPTYADDFKDRFAFSLETSASTAFLQINNLKDEDMATYFCARKGIYYDYVWFFDVWGAGTTVTVSS
VL: DIQMTQSPSSLSTSLGGKVSITCKASQDINRYIAWYQHKPGKGPRLLIHYTSTLLPGIPSRFSGSGSGRDYSFSISNLEPEDIATYFCLQYSNLLTFGGGTKLEIK
notes: mouse hybridoma antibody
B2: the “SK-MEL-28 cell based ATPase inhibition % at 10 nM” value in test [1] is 43%. For the same molecule, the figures for the EC50 in test [2], in test [3] and in test [5] were 11 nM, 21 nM and 30 nM, respectively. Also, in test [4], the binding result is “no binding (tested: 30 µg/ml highest concentration)”.

B3: hu14.H2L2 (antibody, V domains shown)
VH: EVQLVESGGGLVKPGGSLRLSCAASGFTFSKYWMNWVRQSPGKGLEWVGEIRLKSNKYGTHYAESVKGRFTISRDDSKNTLYLQMNSLKTEDTAVYYCTTQLDLYWFFDVWGQGTTVTVSS
VL: EIVLTQSPATLSLSPGERATLSCRASQSISDYLHWYQQKPGQSPRLLIYYASQSISGIPARFSGSGSGTDFTLTISSLEPEDFAVYFCQNGHSLPLTFGGGTKLEIK
notes: humanized c14
Regarding B3, in test [6], a half-maximal effect (EC50) was put at 6.91 nM.

B4: hu14.H4L2 (antibody, V domains shown)
VH: B3 VH with L18M, G49A, L81V
VL: B3 VL
notes: humanized c14
Take B4: the binding result in test [7] was “binds”.

B5: hu14.H1L3 (antibody, V domains shown)
VH: B3 VH with S40A
VL: B3 VL with L13V, L78V
notes: humanized c14
For B5, the binding result in test [7] was “binds”.

B6: hu14.H1L4 (antibody, V domains shown)
VH: B3 VH with S40A
VL: B3 VL with L4M, L13V, A19V, L78V
notes: humanized c14
Take B6: the binding result in test [7] is given as “binds”.

B7: hu14.H2L1 (antibody, V domains shown)
VH: B3 VH
VL: B3 VL with S43A, F87Y
notes: humanized c14
Consider B7, for which, in test [7], the binding result is recorded as “binds”.

B8: hu14.H2L3 (antibody, V domains shown)
VH: B3 VH
VL: B3 VL with L13V, L78V
notes: humanized c14
Take B8: the binding result in test [7] is “binds”.

B9: hu14.H1L2 (antibody, V domains shown)
VH: B3 VH with S40A
VL: B3 VL
notes: humanized c14
What is called Kd is the constant that tells how readily two partners part at equilibrium. High values mean weaker binding, low ones tighter binding. One may read the koff as a measure of how fast the partners let go of each other. In general, kon refers to the second-order rate constant of association. Low readings indicate slower complex formation, high ones faster complex formation. In test [8], B9 had a Kd of 0.839 nM, an off-rate constant (koff) of 0.000326 s⁻¹ and a kon of 389000 M⁻¹ s⁻¹.

B10: hu14.H3L2 (antibody, V domains shown)
VH: B3 VH with G49A, L81V
VL: B3 VL
notes: humanized c14
Regarding B10, the binding result in test [7] is reported as “binds”.

B11: hu14.H2L4 (antibody, V domains shown)
VH: B3 VH
VL: B3 VL with L4M, L13V, A19V, L78V
notes: humanized c14
On to B11, for which, in test [7], the binding result is “binds”.

B12: mAb34 (antibody, V domains shown)
VH: EIQVQQSGPELVKPGASVKVSCKASGYSFTDYNMYWVKQSHGKSLEWIGFIDPYNGYTSYNQKFKGKATLTIDKSSSTAFMHLNSLTSEDSAVYYCAIYGYDDAYYFDYWGQGTTLTVSS
VL: QIVLTQSPAIMSASPGEKVTITCSATSSVSYMHWFRQKPGTSPKLWIYSTSNLASGVPARFSGSGSGTSYSLTISRMAAEDAATYYCQQRITYPFTFGSGTKLEIT
notes: mouse hybridoma antibody
On to B12, for which, in test [1], the “SK-MEL-28 cell based ATPase inhibition % at 10 nM” value was 72%. In addition, the values for the EC50 in test [2], in test [3] and in test [5] were 4.7 nM, 3.1 nM and 4.4 nM, respectively. The binding result in test [4] is “no binding (tested: 30 µg/ml highest concentration)”.

For the origin of these results see patent US20210388105A1 (ELPISCIENCE SUZHOU BIOPHARMA, published 2021).
